In article PMC10141581, “Autonomous Synthesis of Functional, Permanently Phosphorylated Proteins for Defining the Interactome of Monomeric 14-3-3ζ” (ACS Central Science, 2023):

Molecular target: the molecule itself
Test: SEC-MALS; 14-3-3ζ variants alone, injected at 50 μM initial concentration; Superdex 200 10/300 GL; 50 mM Tris pH 7.4, 150 mM NaCl, 0.5 mM TCEP; room temperature; dimer to monomers

B1: 14-3-3ζ S58E (natural protein, human)
chain: MDKNELVQKAKLAEQAERYDDMAACMKSVTEQGAELSNEERNLLSVAYKNVVGARRSEWRVVSSIEQKTEGAEKKQQMAREYREKIETELRDICNDVLSLLEKFLIPNASQAESKVFYLKMKGDYYRYLAEVAAGDDKKGIVDQSQQAYQEAFEISKKEMQPTHPIRLGLALNFSVFYYEILNSPEKACSLAKTAFDEAIAELDTLSEESYKDSTLIMQLLRDNLTLWTS
notes: 14-3-3 protein zeta with Glu at position 58 (ζ-isoform numbering); also called S58E variant; phosphomimetic S58E; source: E. coli, purified
  stoichiometry N: 2
